Measured values from patent publication EP2433948A1, “Use of a new class of nucleotide sugar as antibiotic or cytostatic agent” (Max-Planck-Gesellschaft zur Förderung der Wissenschaften …, priority 2010, dated 2012).

Substrate: CC(=O)N[C@H]1[C@@H](OP(=O)(O)OP(=O)(O)OC[C@H]2O[C@@H](n3ccc(=O)[nH]c3=O)[C@H](O)[C@@H]2O)O[C@H](CO)[C@@H](O)[C@@H]1O
Experiment: MurA activity/inhibition assay (phosphate release coupled to PNPase cleavage of fluorescent 7-methylguanosine)
Assay type: biochemical, E. coli
Details: other: 0.5 µM MurA, 1 mM phosphoenolpyruvate; best fit parameter of global fit; same as reported in literature; pH 7.5
Text: • (a) MurA performs the first step of UDP-muramic acid biosynthesis. After sequential binding of UNAG and phosphoenolpyruvate, a tetrahedral intermediate is formed that yields enolpyruvyl-UNAG after cleavage of inorganic phosphate. UNAG-3P most likely mimics this tetrahedral intermediate and thereby inhibits MurA catalysis by a competitive binding mechanism. (b) Determination of the Ki of UNAG-3P for MurA. Enolpyruvyl-UNAG formation catalyzed by MurA from E. coli in presence of PEP and UNAG-3P and varying UNAG concentrations under steady state conditions. MurA enzyme kinetics were followed by coupling the reaction to phosphate dependent cleavage of fluorescent 7-methylguanosine by nucleoside phosphorylase resulting in a strong decrease of the fluorescence at 400 nm (λexc = 300 nm). The UNAG-3P concentrations for each saturation curve were 0 µM (●), 15 µM (□) and 30 µM (Δ). A Lineweaver-Burk plot is shown as inset.
The enolpyruvyl activity of E. coli MurA was monitored by coupling phosphate release to cleavage of fluorescent 7-methylguanosine (Sigma) by bacterial purine-nucleoside phosphorylase (PNPase) (Sigma). […] The reactions were monitored by the decrease in fluorescence at 400 nm with excitation set to 300 nm in a FluoroMax-3 spectrofluorometer (HORIBA Jobin Yvon) with excitation and emission bandwidths of 5 nm. […]

B1: E. coli MurA (Escherichia coli K-12) (protein)
chain: MDKFRVQGPTKLQGEVTISGAKNAALPILFAALLAEEPVEIQNVPKLKDVDTSMKLLSQLGAKVERNGSVHIDARDVNVFCAPYDLVKTMRASIWALGPLVARFGQGQVSLPGGCTIGARPVDLHISGLEQLGATIKLEEGYVKASVDGRLKGAHIVMDKVSVGATVTIMCAATLAEGTTIIENAAREPEIVDTANFLITLGAKISGQGTDRIVIEGVERLGGGVYRVLPDRIETGTFLVAAAISRGKIICRNAQPDTLDAVLAKLRDAGADIEVGEDWISLDMHGKRPKAVNVRTAPHPAFPTDMQAQFTLLNLVAEGTGFITETVFENRFMHVPELSRMGAHAEIESNTVICHGVEKLSGAQVMATDLRASASLVLAGCIAEGTTVVDRIYHIDRGYERIEDKLRALGANIERVKGE
With B1 the Km was 15 µM.
